In US20090191187A1 (published 2009):
Residue numbers refer to the chain shown, from its start. Where “and” joins values, the source holds several entries; their conditions need not be identical. Identical values can stand only once.

T1: recombinant soluble human type 1 IL-1 receptor (extracellular domain, glycosylated) (human, UniProt P14778 21-333, N-glycosylated (from SF9 insect cells); biotinylated in the ELISA of Examples 2 and 4c)
T1 construct: also called hIL-1R; rshIL-1R
T1 sequence: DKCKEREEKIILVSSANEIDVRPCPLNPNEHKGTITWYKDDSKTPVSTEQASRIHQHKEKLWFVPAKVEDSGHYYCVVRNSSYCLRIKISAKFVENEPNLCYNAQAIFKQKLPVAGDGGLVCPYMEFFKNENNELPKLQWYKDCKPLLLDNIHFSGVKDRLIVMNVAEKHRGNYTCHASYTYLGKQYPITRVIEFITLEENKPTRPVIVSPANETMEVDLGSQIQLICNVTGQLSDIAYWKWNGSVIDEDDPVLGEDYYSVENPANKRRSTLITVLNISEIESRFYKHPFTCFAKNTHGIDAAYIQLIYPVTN

T2: human interleukin-1 receptor on cells (MRC-5 human embryonic lung fibroblasts; human blood cells) (human, UniProt P14778 18-569)
T2 sequence (looked up): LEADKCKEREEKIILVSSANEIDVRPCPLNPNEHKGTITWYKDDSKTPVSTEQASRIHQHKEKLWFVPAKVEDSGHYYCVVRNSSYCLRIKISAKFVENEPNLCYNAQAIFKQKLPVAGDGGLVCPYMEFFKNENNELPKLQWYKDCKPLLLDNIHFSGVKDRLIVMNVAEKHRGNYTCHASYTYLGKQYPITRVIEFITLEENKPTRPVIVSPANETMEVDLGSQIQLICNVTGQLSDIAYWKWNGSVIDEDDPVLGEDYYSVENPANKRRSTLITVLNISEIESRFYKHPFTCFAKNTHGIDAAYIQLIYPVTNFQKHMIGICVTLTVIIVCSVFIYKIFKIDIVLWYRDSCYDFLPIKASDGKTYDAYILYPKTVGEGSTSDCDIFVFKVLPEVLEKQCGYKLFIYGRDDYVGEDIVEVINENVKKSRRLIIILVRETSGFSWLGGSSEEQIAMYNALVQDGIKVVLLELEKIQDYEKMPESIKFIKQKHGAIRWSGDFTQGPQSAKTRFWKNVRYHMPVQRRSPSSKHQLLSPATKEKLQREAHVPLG

B1: DEI5/8 (antibody, human IgG4, kappa, V domains shown)
VH: QLQLQESGPGLVKPSQTLSLTCTVSGLSLTSNSITWIRQPPGKGPEWMGMIWSNGDTDYSTSLKSRLTISKDTSKSQVVLTMTNMDPVDTATYYCARYNYYFDYWGQGTLVTVSS
VL: DIVLTQSPATLSLSPGERATLSCKASQNVDNRGVSYVHWYQQKPGQAPKLLIYKGSNLAFGVPSRFSGSGSGTDFTLTISSLQPEDFATYFCQQSKGHPDTFGAGTKLELKR
notes: also called combination of HURDIVHv5 and HURDIVKv8
B2: HUM2/2 (antibody, V domains shown)
VH: QVQLQESGPGLVKPSETLSLTCTVSELSLTSNSITWIRQPPGKGLEWIGMIWSNGDTDYNSAFTSRVTISRDTSKNQFSLKLSSVTAADTAVYYCARYNYYFDYWGQGTLVTVSS
VL: EIVLTQSPATLSLSPGERATLSCKASQNVDNRGVSYVHWYQQKPGQAPRLLIYKGSNLAFGVPARFSGSGSRTDFTLTISSLEPEDFATYYCQQSKGHPDTFGQGTKVEIK
notes: Humanized variant of 2D8
B3: HUM2/3 (antibody, V domains shown)
VH: B2 VH
VL: B2 VL with L21I, A47Q, R49K
notes: also called combination of HUR HuVH v2 and HUR HuVK v3
B4: chimeric 2D8 (IgG1) (antibody)
heavy: not shown
light: DIVLTQAPVLAVSLEQRATISCKASQNVDNRGVSYVHWYQQKPRQQPKLLIYKGSNLAFGVPARFSGSGSRTDFTLTIDPVETDDFATYYCQQSKGHPDTFGAGTKLELKRTVAAPSVFIFPPSDEQLKSGTASVVCLLNNFYPREAKVQWKVDNALQSGNSQESVTEQDSKDSTYSLSSTLTLSKADYEKHKVYACEVTHQGLSSPVTKSFNRGEC
B5: chimeric 2D8 (IgG4) (antibody)
heavy: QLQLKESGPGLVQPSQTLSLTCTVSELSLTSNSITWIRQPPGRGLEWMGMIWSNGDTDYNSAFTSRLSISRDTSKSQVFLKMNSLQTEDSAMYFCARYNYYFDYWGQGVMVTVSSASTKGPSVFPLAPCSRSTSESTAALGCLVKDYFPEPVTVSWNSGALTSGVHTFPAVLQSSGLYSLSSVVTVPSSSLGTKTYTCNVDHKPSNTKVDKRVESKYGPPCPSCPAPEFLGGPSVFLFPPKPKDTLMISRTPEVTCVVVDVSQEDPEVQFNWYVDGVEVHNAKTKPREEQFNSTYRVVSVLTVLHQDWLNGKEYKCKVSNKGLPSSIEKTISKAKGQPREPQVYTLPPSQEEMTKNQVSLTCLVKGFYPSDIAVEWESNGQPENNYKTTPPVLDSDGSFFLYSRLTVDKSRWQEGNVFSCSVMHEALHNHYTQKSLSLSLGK
light: B4 light
B6: antibody 2D8 (rat monoclonal antibody against human interleukin-1 receptor, from hybridoma cell line MAK<h-IL-1RI>2D8, DSM ACC 2601) (antibody, V domains shown)
VH: QLQLKESGPGLVQPSQTLSLTCTVSELSLTSNSITWIRQPPGRGLEWMGMIWSNGDTDYNSAFTSRLSISRDTSKSQVFLKMNSLQTEDSAMYFCARYNYYFDYWGQGVMVTVSS
VL: DIVLTQAPVLAVSLEQRATISCKASQNVDNRGVSYVHWYQQKPRQQPKLLIYKGSNLAFGVPARFSGSGSRTDFTLTIDPVETDDFATYYCQQSKGHPDTFGAGTKLEL

What was measured:
[1] = biological target: T1, recombinant soluble human type 1 IL-1 …; assay: SPR competition: IL-1R (10 nM) preincubated with DEI5/8, injected over immobilized 2D8 (competitor); first assay: immobilized 2D8
Procedure: The protein-protein interaction of anti-IL-1R antibodies with IL-1R is analyzed by surface plasmon resonance using a Biacore 3000 System. Association rates are determined by an injection of two minutes duration; dissociation rates are measured by a washing step of three minutes duration. Negative control data are subtracted from original curves for correction of system intrinsic baseline drift and for noise signal reduction. Two assay formats with the antibody and IL-1R immobilized to the chip surface are used for this study.
a) Anti-IL-1R antibody 2D8 is covalently immobilized on the chip surface (CM5) by amine coupling. IL-1R is injected in a concentration of 10 nM under mass transfer conditions in order to determine the maximum signal which serves as a reference in the inhibition studies. Inhibition of IL-1R (10 nM) binding is measured by preincubation (in HBS—P buffer for at least 20 min at room temperature) of IL-1R with increasing concentrations (0.78-100 nM) of IL-1R antagonist, IL-1beta or DEI5/8. Subsequently, the samples are injected into the flow cells and interaction with immobilized 2D8 antibody is determined.

[2] = biological target: T2, human interleukin-1 receptor on cells …; assay: cell-based or functional assay
[3] = biological target: T1, recombinant soluble human type 1 IL-1 …; assay: ELISA on biotinylated human IL-1R on streptavidin plates
Procedure: The relative immunactivity of the antibodies as compared to 2D8 antibody was determined by ELISA. A soluble biotinylated human IL-1R was coated at room temperature for one hour to 96-well-plates (precoated with streptavidin). After blocking with BSA the antibody was diluted and added to the wells and incubated at room temperature for two hours. The plates were washed three times and incubated with horse-radish-peroxidase (POD)-conjugated rabbit-anti-rat-IgG at room temperature for one hour. After further washing the amount of bound antibody was determined by addition of TM-Blue® ([…]) and measurement of the absorbance at 370 nm.

[4] = biological target: T2, human interleukin-1 receptor on cells …; assay: cell-based or functional assay; remark: listed apart in the source

Binder | IC50 [1] | Bioassay (IC50 in relation to 2D8), 1st experiment [2] | Bioassay (IC50 in relation to 2D8), 2nd experiment [2] | Bioassay (IC50 in relation to 2D8), Mean [2] | ELISA (absorbance at 370 nm in relation to 2D8), 1st experiment [3] | ELISA (absorbance at 370 nm in relation to 2D8), 2nd experiment [3] | ELISA (absorbance at 370 nm in relation to 2D8), mean [3] | IC 50 for the inhibition of IL-8 secretion (h-IL1β stimulated MRC-5 cells) [4]
B1 | 2 nM | 1.7 relative to 2D8 | 2.2 relative to 2D8 | 2 relative to 2D8 | 1.4 relative to 2D8 | 1.9 relative to 2D8 | 1.7 relative to 2D8 | 
B2 |  | 0.9 relative to 2D8 | 1 relative to 2D8 | 1 relative to 2D8 | 1.3 relative to 2D8 | 1.6 relative to 2D8 | 1.4 relative to 2D8 | 
B3 |  | 0.8 relative to 2D8 | 1.5 relative to 2D8 | 1.2 relative to 2D8 | 2.2 relative to 2D8 | 2.1 relative to 2D8 | 2.2 relative to 2D8 | 
B4 |  |  |  |  |  |  |  | 4.7 pM and 0.71 ng/ml
B5 |  |  |  |  |  |  |  | 5.1 pM and 0.77 ng/ml
B6 |  |  |  | 1 relative to 2D8 |  |  |  | 7.2 pM and 1.08 ng/ml
